{"source": "paper PMC10397247", "binders": {"B1": {"name": "4H3381-bA (peptide)", "chain": "DKNAQLEQKIAELEQKNAELEWKIAQLEQ"}, "B2": {"name": "O9-bH (peptide)", "chain": "DENQELEKKNEELKREIWELEKEIQELER"}, "B3": {"name": "APC4011-AA (peptide)", "chain": "DENAALEAELAAIEAKLAAIKAKLAAIKG"}, "B4": {"name": "APC3881-AA (peptide)", "chain": "DKAAALKAELAANEAELAANEAKLAAIKG"}}, "key": {"4H4001-bA": {"target": "T1, 4H4001-bA", "T1 chain": "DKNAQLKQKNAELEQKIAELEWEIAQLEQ", "experiment": "two-hybrid library CCNG1;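 also: natural log of median RNA to DNA barcode read ratio; higher means stronger binding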"}, "4H56-bA": {"target": "T2, 4H56-bA", "T2 chain": "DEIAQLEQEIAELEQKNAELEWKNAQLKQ", "experiment": "two-hybrid library CCNG1"}, "4H796-bA": {"target": "T3, 4H796-bA", "T3 chain": "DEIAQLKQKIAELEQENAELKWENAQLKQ", "experiment": "two-hybrid library CCNG1"}, "4H349-bA": {"target": "T4, 4H349-bA", "T4 chain": "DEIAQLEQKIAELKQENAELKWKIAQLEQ", "experiment": "two-hybrid library CCNG1"}, "4H3381-bA": {"target": "T5, 4H3381-bA", "T5 chain": "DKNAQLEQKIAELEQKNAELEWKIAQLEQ", "experiment": "two-hybrid library CCNG1"}, "4H932-bA": {"target": "T6, 4H932-bA", "T6 chain": "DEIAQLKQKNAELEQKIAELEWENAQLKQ", "experiment": "two-hybrid library CCNG1"}, "4H949-bA": {"target": "T7, 4H949-bA", "T7 chain": "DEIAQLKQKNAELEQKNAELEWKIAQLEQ", "experiment": "two-hybrid library CCNG1"}, "4H730-bA": {"target": "T8, 4H730-bA", "T8 chain": "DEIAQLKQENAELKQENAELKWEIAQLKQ", "experiment": "two-hybrid library CCNG1"}, "O9-bH": {"target": "T9, O9-bH", "T9 chain": "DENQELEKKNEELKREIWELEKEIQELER", "experiment": "two-hybrid library CCNG1", "conditions": "mean of both orientations"}, "APC4011-AA": {"target": "T10, APC4011-AA", "T10 chain": "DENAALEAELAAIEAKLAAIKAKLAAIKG", "experiment": "two-hybrid library CCmax"}, "APC4436-AA": {"target": "T11, APC4436-AA", "T11 chain": "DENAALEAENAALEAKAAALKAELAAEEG", "experiment": "two-hybrid library CCmax", "conditions": "mean of both orientations"}, "APC8910-AA": {"target": "T12, APC8910-AA", "T12 chain": "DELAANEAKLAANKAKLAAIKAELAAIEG", "experiment": "two-hybrid library CCmax", "conditions": "mean of both orientations"}, "APC6108-AA": {"target": "T13, APC6108-AA", "T13 chain": "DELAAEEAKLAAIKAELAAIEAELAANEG", "experiment": "two-hybrid library CCmax", "conditions": "mean of both orientations"}, "APC7099-AA": {"target": "T14, APC7099-AA", "T14 chain": "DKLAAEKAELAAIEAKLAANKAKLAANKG", "experiment": "two-hybrid library CCmax", "conditions": "mean of both orientations"}, "APC5383-AA": {"target": "T15, APC5383-AA", "T15 chain": "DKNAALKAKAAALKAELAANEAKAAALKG", "experiment": "two-hybrid library CCmax", "conditions": "mean of both orientations"}, "APC8191-AA": {"target": "T16, APC8191-AA", "T16 chain": "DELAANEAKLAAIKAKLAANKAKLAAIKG", "experiment": "two-hybrid library CCmax"}, "APC9096-AA": {"target": "T17, APC9096-AA", "T17 chain": "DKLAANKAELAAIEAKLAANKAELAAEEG", "experiment": "two-hybrid library CCmax", "conditions": "mean of both orientations"}, "APC9319-AA": {"target": "T18, APC9319-AA", "T18 chain": "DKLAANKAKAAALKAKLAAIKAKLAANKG", "experiment": "two-hybrid library CCmax", "conditions": "mean of both orientations"}, "APC4264-AA": {"target": "T19, APC4264-AA", "T19 chain": "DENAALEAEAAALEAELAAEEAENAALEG", "experiment": "two-hybrid library CCmax", "conditions": "mean of both orientations"}, "APC4336-AA": {"target": "T20, APC4336-AA", "T20 chain": "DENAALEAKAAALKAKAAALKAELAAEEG", "experiment": "two-hybrid library CCmax", "conditions": "mean of both orientations"}, "APC9291-AA": {"target": "T21, APC9291-AA", "T21 chain": "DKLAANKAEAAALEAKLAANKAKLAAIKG", "experiment": "two-hybrid library CCmax", "conditions": "mean of both orientations"}, "APC5531-AA": {"target": "T22, APC5531-AA", "T22 chain": "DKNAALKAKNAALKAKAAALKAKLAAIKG", "experiment": "two-hybrid library CCmax", "conditions": "mean of both orientations"}, "APC7524-AA": {"target": "T23, APC7524-AA", "T23 chain": "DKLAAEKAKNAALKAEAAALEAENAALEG", "experiment": "two-hybrid library CCmax", "conditions": "mean of both orientations"}, "APC6088-AA": {"target": "T24, APC6088-AA", "T24 chain": "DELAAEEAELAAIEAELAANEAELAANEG", "experiment": "two-hybrid library CCmax", "conditions": "mean of both orientations"}, "APC4100-AA": {"target": "T25, APC4100-AA", "T25 chain": "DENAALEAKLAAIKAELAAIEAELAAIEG", "experiment": "two-hybrid library CCmax", "conditions": "mean of both orientations"}, "APC9182-AA": {"target": "T26, APC9182-AA", "T26 chain": "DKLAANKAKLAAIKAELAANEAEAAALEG", "experiment": "two-hybrid library CCmax", "conditions": "mean of both orientations"}, "APC9806-AA": {"target": "T27, APC9806-AA", "T27 chain": "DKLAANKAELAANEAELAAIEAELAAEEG", "experiment": "two-hybrid library CCmax", "conditions": "mean of both orientations"}, "APC8516-AA": {"target": "T28, APC8516-AA", "T28 chain": "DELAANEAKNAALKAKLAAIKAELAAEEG", "experiment": "two-hybrid library CCmax", "conditions": "mean of both orientations"}, "APC542-AA": {"target": "T29, APC542-AA", "T29 chain": "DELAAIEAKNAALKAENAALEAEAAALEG", "experiment": "two-hybrid library CCmax", "conditions": "mean of both orientations"}, "APC9141-AA": {"target": "T30, APC9141-AA", "T30 chain": "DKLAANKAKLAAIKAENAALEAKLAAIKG", "experiment": "two-hybrid library CCmax", "conditions": "mean of both orientations"}, "APC8401-AA": {"target": "T31, APC8401-AA", "T31 chain": "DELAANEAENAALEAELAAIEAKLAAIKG", "experiment": "two-hybrid library CCmax", "conditions": "mean of both orientations"}, "APC3881-AA": {"target": "T32, APC3881-AA", "T32 chain": "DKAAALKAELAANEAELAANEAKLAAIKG", "experiment": "two-hybrid library CCmax"}, "APC5009-AA": {"target": "T33, APC5009-AA", "T33 chain": "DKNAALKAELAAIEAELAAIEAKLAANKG", "experiment": "two-hybrid library CCmax"}}, "data": [{"binder": "B1", "values": [{"measurement": "interaction score", "setting": "4H4001-bA", "result": -0.563}, {"measurement": "interaction score", "setting": "4H56-bA", "result": -0.961}, {"measurement": "interaction score", "setting": "4H796-bA", "result": -0.941}, {"measurement": "interaction score", "setting": "4H349-bA", "result": -1.06}, {"measurement": "interaction score", "setting": "4H3381-bA", "result": 0.241}, {"measurement": "interaction score", "setting": "4H932-bA", "result": -0.845}, {"measurement": "interaction score", "setting": "4H949-bA", "result": -1.1}, {"measurement": "interaction score", "setting": "4H730-bA", "result": -1.47}]}, {"binder": "B2", "values": [{"measurement": "interaction score", "setting": "O9-bH", "result": -0.295}]}, {"binder": "B3", "values": [{"measurement": "interaction score", "setting": "APC4011-AA", "result": 2.04}, {"measurement": "interaction score", "setting": "APC4436-AA", "result": -1.48}, {"measurement": "interaction score", "setting": "APC8910-AA", "result": -1.43}, {"measurement": "interaction score", "setting": "APC6108-AA", "result": 0.352}, {"measurement": "interaction score", "setting": "APC7099-AA", "result": -1.45}, {"measurement": "interaction score", "setting": "APC5383-AA", "result": -1.52}, {"measurement": "interaction score", "setting": "APC8191-AA", "result": -1.55}, {"measurement": "interaction score", "setting": "APC9096-AA", "result": -1.88}, {"measurement": "interaction score", "setting": "APC9319-AA", "result": -1.27}, {"measurement": "interaction score", "setting": "APC4264-AA", "result": -1.72}]}, {"binder": "B4", "values": [{"measurement": "interaction score", "setting": "APC4336-AA", "result": -1.5}, {"measurement": "interaction score", "setting": "APC9291-AA", "result": -2.12}, {"measurement": "interaction score", "setting": "APC5531-AA", "result": -1.92}, {"measurement": "interaction score", "setting": "APC7524-AA", "result": -1.49}, {"measurement": "interaction score", "setting": "APC6088-AA", "result": -1.78}, {"measurement": "interaction score", "setting": "APC4100-AA", "result": -1.25}, {"measurement": "interaction score", "setting": "APC9182-AA", "result": -1.63}, {"measurement": "interaction score", "setting": "APC9806-AA", "result": -1.72}, {"measurement": "interaction score", "setting": "APC8516-AA", "result": -1.39}, {"measurement": "interaction score", "setting": "APC542-AA", "result": -1.63}, {"measurement": "interaction score", "setting": "APC9141-AA", "result": -1.38}, {"measurement": "interaction score", "setting": "APC8401-AA", "result": -1.61}, {"measurement": "interaction score", "setting": "APC3881-AA", "result": -1.67}, {"measurement": "interaction score", "setting": "APC5009-AA", "result": -1.15}]}]}
